Assay results reported in publication doi:10.1101/2025.08.27.672506.

Molecular target: wild-type ectodomain of HA from A/Malaysia/1706215/2007 (H1N1) (influenza A virus A/Malaysia/1706215/2007 (H1N1))
Assay: SEC

Substance: wild-type ectodomain of HA from A/Malaysia/1706215/2007 (H1N1) (domain or fragment)
- stoichiometry N: 3
